Two molecules from PMC13376213 (2026) can be followed below.

What all share (experiment): FP displacement
The target of assay [1] is T1, USP19 (Homo sapiens (Human), UniProt O94966).
T1 chain: PFQPGRMALESQSPG

In assay [2] the target is T2, ROBO1 (Homo sapiens (Human), UniProt Q9Y6N7).
T2 chain: AQSKTQLEVRPV

Assay [3] addresses T3, IRAG1 (Homo sapiens (Human), UniProt Q9Y6F6).
T3 chain: TNSSGKMALNSPQPG

Assay [4] has as its target T4, CEP192 (Homo sapiens (Human), UniProt Q8TEP8).
T4 chain: LQPSSKASLESTSDL

In assay [5] the target is T5, HIF1A (Homo sapiens (Human), UniProt Q16665).
T5 chain: PYIPMDDDFQLRSFDQLS

The target of assay [6] is T6, MFSD2B (Homo sapiens (Human), UniProt A6NFX1).
T6 chain: DVVDDFQLQHRHGPG

The target of assay [7] is T7, CCDC88B (Homo sapiens (Human), UniProt A6NC98).
T7 chain: QLEEELFQLRQGPAG

B1: USP33 (protein)
chain: RNHCPHLDSVGEITKEDLIQKSLGTCQDCKVQGPNLWACLENRCSYVGCGESQVDHSTIHSQETKHYLTVNLTTLRVWCYACSKEVFLDRKLGTQ
As usually defined, the Kd is a measure of binding affinity in units of concentration. Consider B1, for which the Kd is 40.6 µM in assay [1], 14 µM in assay [2], 7.86 µM in assay [3] and 14.1 µM in assay [4].

B2: USP33 (protein)
chain: HLYICHTCQIEAEKIEKRRKTELEIFIRLNRAFQKEDSPATFYCISMQWFREWESFVKGKDGDPPGPIDNTKIAVTKCGNVMLRQGADSGQISEETWNFLQSIYGGGPEVILRPPV
As to B2, the Kd in assay [5] is 1.5 µM; in assay [6] it was 0.75 µM; in assay [7], 40.1 µM.
